US20040248202A1 (WISCONSIN ALUMNI RESEARCH FOUNDATION, published 2004)

B1: BR-Rhodopsin loop 3 chimera, Rhodopsin Insert Y223 to M253 (3C) (other)
chain: QAQITGRPEWIWLALGTALMGLGTLYFLVKGMGVSDPDAKKFYAITTLVPAIAFTMYLSMLLGYGLTMVPFGGEQNPIYWARYADWLFTTPLLLLDLALLVDADQGTILALVGADGIMIGTGLVGALTKVYSYRFVWWAISTAAMLYILYVLFFGFTYGQLVFTVKEAAAQQQESATTQKAEKEVTRMVASTFKVLRNVTVVLWSAYPVVWLIGSEGAGIVPLNIETLLFMVLDVSAKVGFGLILLRSRAIFGEAEAPEPSAGDGAAATSD
B2: BR-Rhodopsin loop 3 chimera, Rhodopsin Insert Y223 to T251 (3B) (other)
chain: QAQITGRPEWIWLALGTALMGLGTLYFLVKGMGVSDPDAKKFYAITTLVPAIAFTMYLSMLLGYGLTMVPFGGEQNPIYWARYADWLFTTPLLLLDLALLVDADQGTILALVGADGIMIGTGLVGALTKVYSYRFVWWAISTAAMLYILYVLFFGFTYGQLVFTVKEAAAQQQESATTQKAEKEVTVASTFKVLRNVTVVLWSAYPVVWLIGSEGAGIVPLNIETLLFMVLDVSAKVGFGLILLRSRAIFGEAEAPEPSAGDGAAATSD
B3: BR-Rhodopsin loop 3 chimera, Rhodopsin Insert Q225 to T251 (3D) (other)
chain: QAQITGRPEWIWLALGTALMGLGTLYFLVKGMGVSDPDAKKFYAITTLVPAIAFTMYLSMLLGYGLTMVPFGGEQNPIYWARYADWLFTTPLLLLDLALLVDADQGTILALVGADGIMIGTGLVGALTKVYSYRFVWWAISTAAMLYILYVLFFGFTQLVFTVKEAAAQQQESATTQKAEKEVTVASTFKVLRNVTVVLWSAYPVVWLIGSEGAGIVPLNIETLLFMVLDVSAKVGFGLILLRSRAIFGEAEAPEPSAGDGAAATSD
B4: BR-Rhodopsin loop 3 chimera, Rhodopsin Insert G224 to M253 (3E) (other)
chain: QAQITGRPEWIWLALGTALMGLGTLYFLVKGMGVSDPDAKKFYAITTLVPAIAFTMYLSMLLGYGLTMVPFGGEQNPIYWARYADWLFTTPLLLLDLALLVDADQGTILALVGADGIMIGTGLVGALTKVYSYRFVWWAISTAAMLYILYVLFFGFTGQLVFTVKEAAAQQQESATTQKAEKEVTRMVASTFKVLRNVTVVLWSAYPVVWLIGSEGAGIVPLNIETLLFMVLDVSAKVGFGLILLRSRAIFGEAEAPEPSAGDGAAATSD
B5: BR-Rhodopsin loop 3 chimera, Rhodopsin Insert Y223 to R252 (3G) (other)
chain: QAQITGRPEWIWLALGTALMGLGTLYFLVKGMGVSDPDAKKFYAITTLVPAIAFTMYLSMLLGYGLTMVPFGGEQNPIYWARYADWLFTTPLLLLDLALLVDADQGTILALVGADGIMIGTGLVGALTKVYSYRFVWWAISTAAMLYILYVLFFGFTYGQLVFTVKEAAAQQQESATTQKAEKEVTRVASTFKVLRNVTVVLWSAYPVVWLIGSEGAGIVPLNIETLLFMVLDVSAKVGFGLILLRSRAIFGEAEAPEPSAGDGAAATSD
B6: bacteriorhodopsin (other)
chain: QAQITGRPEWIWLALGTALMGLGTLYFLVKGMGVSDPDAKKFYAITTLVPAIAFTMYLSMLLGYGLTMVPFGGEQNPIYWARYADWLFTTPLLLLDLALLVDADQGTILALVGADGIMIGTGLVGALTKVYSYRFVWWAISTAAMLYILYVLFFGFTSKAESMRPEVASTFKVLRNVTVVLWSAYPVVWLIGSEGAGIVPLNIETLLFMVLDVSAKVGFGLILLRSRAIFGEAEAPEPSAGDGAAATSD
B7: BR-Rhodopsin loop 3 chimera, Rhodopsin Insert Q225 to R252 (3H) (other)
chain: QAQITGRPEWIWLALGTALMGLGTLYFLVKGMGVSDPDAKKFYAITTLVPAIAFTMYLSMLLGYGLTMVPFGGEQNPIYWARYADWLFTTPLLLLDLALLVDADQGTILALVGADGIMIGTGLVGALTKVYSYRFVWWAISTAAMLYILYVLFFGFTQLVFTVKEAAAQQQESATTQKAEKEVTRVASTFKVLRNVTVVLWSAYPVVWLIGSEGAGIVPLNIETLLFMVLDVSAKVGFGLILLRSRAIFGEAEAPEPSAGDGAAATSD

What follows are binders tested against holotransducin (assay: cell-based or functional assay).

Binder | Activation (x100%) Over Basal Exchange | Specific counts (Lattice Form), 10 Minutes, GTPyS uptake [specific counts]
B1 | 1.44 x100% | –
B2 | 1.17 x100% | 62800
B3 | 1 x100% | 53400
B4 | 1.46 x100% | 78400

Molecular target: holotransducin
Assay: cell-based or functional assay
Remark: another data set of the same source

Binder | Activation (3C) over Basal Exchange, 100 uM GDP [fold]
B1 | 1.67

Molecular target: holotransducin
Assay: cell-based or functional assay
Remark: another data set of the same source

Binder | Activation (Fold increase) over BR [fold] | Activation (Fold increase) over Basal [fold] | Specific counts (Lattice Form) (at 30 min), 35S-GTPyS uptake [specific counts]
B5 | 1.55 | 1.1 | 183000
B1 | 2.22 | 1.6 | 262000
B6 | – | – | 118000
B7 | 1.6 | 1.17 | 193000
